In patent publication US20200040045, “CARBOHYDRATE PRODUCING PLANT MATERIAL” (GREEN RICE SWEDEN AB, published 2020):

Tests used:
SUSIBA1 [1] = molecular target: SUSIBA1 (Hordeum vulgare); test: EMSA; conditions: tags: overexpressed in and purified from E. coli; label: 32P; second strand printed as 3'-5' complement, annealed duplex
Protocol: (§1) Bars in (A-D)=5 μm and in (K-M)=100 μm. One-way ANOVA was used (Error bars show s.d. and **p≤0.01 between heat-killed background and living agrobacteria).
(§2) Having identified SUSIBA1 p, the potential involvement of SUSIBA1 in fructan synthesis was investigated. […] Electrophoretic mobility shift assay (EMSA) was used to study the in vitro interaction between SUSIBA1 and the promoter of 6-SFT that encodes a key enzyme in synthesis of fructan in barley. EMSA was performed as described previously using overexpressed and purified SUSIBA1 from E. coli (FIG. 8E to 8J). In accordance with the hallmark of WRKY proteins, it was shown that the […] TF bound to the W-box DNA cis-element. […] Examination of the 6-SFT promoter led to identification of two SUREa, three W-box and one SP8a element (FIG. 8E). Using different combinations of the restriction enzymes BstXI, PvulI and SpeI, the full-length promoter (fragment 1) was resolved into four fragments (fragments 2-5, FIG. 8E). […] To confirm the specificity of the binding activity, the element sequences (FIG. 8I) were engineered and the binding of SUSIBA1 was tested. […] No binding activity of SUSIBA1 to the engineered element sequences, i.e., SP8a M, W-box M and SUREa M4 also indicated the reliability of EMSA in the assay system (FIG. 8J). […]

SUSIBA1 [2] = molecular target: SUSIBA1 (Hordeum vulgare); test: EMSA; 0.0125-0.2 ug SUSIBA1 prevents binding of 0.2 ug SUSIBA2 to the W-box; conditions: tags: overexpressed in and purified from E. coli; label: 32P
Protocol: (§3) The infiltrated leaves were incubated at 40 mM Suc. Two days after infiltration and incubation, qPCR analysis was performed. (C) Transcript levels of SUSIBA2 after co-infiltration of agrobacteria containing p35S:SUSIBA2 with the double-stranded decoy oligoes upon antisense inhibition of SUSIBA1. (D) Transcript levels of SUSIBA2 after infiltration of agrobacteria containing p35S:SUSIBA2 alone or the double-stranded decoy oligoes alone at 100 mM Suc. The infiltrated leaves were incubated at 100 mM Suc for two days before analysis. Significant differences are analyzed statistically between p35S:SUSIBA1 and decoy oligoes, and indicated by asterisks (**p≤0.01) in (B), and between p35:SUSIBA2 and decoy oligoes in (C), and between p35:SUSIBA2 and decoy oligoes in (D). One-way ANOVA was used (Error bars show s.d.) Three independent experiments were performed (n=3). (E) EMSA analysis of competitive activity to the W-box in the SUSIBA2 promoter between SUSIBA2 and SUSIBA1. EMSA of binding activity to the W-box of SUSIBA2 (left panel) and SUSIBA1 (middle panel) and SUSIBA2 and SUSIBA1 in competing (right panel). SUSIBA2 and SUSIBA1 were overexpressed and purified from E. coli and challenged with two oligoes. […]

SUSIBA2 = SUSIBA2 (Hordeum vulgare, UniProt Q6VWJ6 SEQ:1-573); test: EMSA; 0.2 ug SUSIBA2; displaced by SUSIBA1; conditions: tags: overexpressed and purified; label: 32P
Chain of SUSIBA2 (Q6VWJ6 whole entry): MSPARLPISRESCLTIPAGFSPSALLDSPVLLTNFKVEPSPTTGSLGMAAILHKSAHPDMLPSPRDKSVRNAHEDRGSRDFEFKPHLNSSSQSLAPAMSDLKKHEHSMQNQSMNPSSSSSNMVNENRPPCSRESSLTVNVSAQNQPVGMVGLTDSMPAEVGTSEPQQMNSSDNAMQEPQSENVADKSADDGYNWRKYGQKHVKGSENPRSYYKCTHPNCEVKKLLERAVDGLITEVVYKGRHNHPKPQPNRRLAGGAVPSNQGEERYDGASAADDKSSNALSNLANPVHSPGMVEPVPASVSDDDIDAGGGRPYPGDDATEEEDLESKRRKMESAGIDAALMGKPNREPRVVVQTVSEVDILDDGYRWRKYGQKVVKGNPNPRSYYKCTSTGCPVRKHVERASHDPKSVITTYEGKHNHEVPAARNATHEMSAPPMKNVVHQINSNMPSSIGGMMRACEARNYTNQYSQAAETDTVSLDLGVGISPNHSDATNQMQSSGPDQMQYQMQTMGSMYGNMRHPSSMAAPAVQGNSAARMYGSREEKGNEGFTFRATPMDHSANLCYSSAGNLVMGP
Protocol: as §3

SUSIBA1 [3] = molecular target: SUSIBA1 (Hordeum vulgare); test: EMSA; A-stretch substitution; conditions: tags: overexpressed in and purified from E. coli; label: 32P
Protocol: as §1, §2

Chain of SUSIBA1 (Hordeum vulgare) (Q6VWJ6 293-573): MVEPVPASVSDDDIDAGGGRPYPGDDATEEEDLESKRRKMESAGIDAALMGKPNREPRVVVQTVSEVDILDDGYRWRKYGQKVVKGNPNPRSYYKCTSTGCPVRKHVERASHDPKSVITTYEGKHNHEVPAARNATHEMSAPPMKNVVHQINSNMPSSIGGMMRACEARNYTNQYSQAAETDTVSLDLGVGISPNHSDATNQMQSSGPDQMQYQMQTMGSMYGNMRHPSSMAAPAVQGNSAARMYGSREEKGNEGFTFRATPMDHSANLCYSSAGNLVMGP

B1: 6-SFT SP8a (dsDNA)
DNA 1: CTGTACTGTGTTTTTAGCCT
DNA 2: AGGCTAAAAACACAGTACAG
binding result (SUSIBA1 [1]): binds

B2: 6-SFT SUREa (dsDNA)
DNA 1: CACACATGGCACGCCAAAAC
DNA 2: GTTTTGGCGTGCCATGTGTG
binding result (SUSIBA1 [1]): binds

B3: SUSIBA2 promoter W-box oligo (dsDNA)
DNA 1: TAGGTCGTCAATTTGACTTATATAAAATAT
DNA 2: ATATTTTATATAAGTCAAATTGACGACCTA
binding result (SUSIBA1 [2]): binds | binding result (SUSIBA2): binds

B4: SUREa M4 (dsDNA)
DNA 1: CAAAAAAAAAAAAAAAAAAC
DNA 2: GTTTTTTTTTTTTTTTTTTG
binding result (SUSIBA1 [3]): no binding
